B1: Fibroblast growth factor 14 (Homo sapiens), Q92915-2 (parent)
chain: MVKPVPLFRRTDFKLLLCNHKDLFFLRVSKLLDCFSPKSMWFLWNIFSKGTHMLQCLCGKSLKKNKNPTDPQLKGIVTRLYCRQGYYLQMHPDGALDGTKDDSTNSTLFNLIPVGLRVVAIQGVKTGLYIAMNGEGYLYPSELFTPECKFKESVFENYYVIYSSMLYRQQESGRAWFLGLNKEGQAMKGNRVKKTKPAAHFLPKPLEVAMYREPSLHDVGETVPKPGVTPSKSTSASAIMNGGKPVNKSKTT

Variants of: B1
Settings: with scn8a_human SCN8A

Row | effect of a mutation on the interaction | Variant
1 | decreasing interaction strength | MVKPVPLFRRTDFKLLLCNHKDLFFLRVSKLLDCFSPKSMWFLWNIFSKGTHMLQCLCGKSLKKNKNPTDPQLKGIVTRLYCRQGYYLQMHPDGALDGTKDDSTNSTLFNLIPVGLRVVAIQGVKTGLYIAMNGEGYLYPSELFTPECKFKESVFENNYNIYSSMLYRQQESGRAWFLGLNKEGQAMKGNRVKKTKPAAHFLPKPLEVAMYREPSLHDVGETVPKPGVTPSKSTSASAIMNGGKPVNKSKTT [Y158N;V160N]

Source: IntAct's records for PubMed 22364545
